Assay in all cases: enzyme kinetics, Hanes-Woolf plot
What all share (type): biochemical, Lavandula angustifolia
Common to all, as to details: Mg2+-dependent enzyme; assay conditions only in supplement

For data set [1], the system named is T1, CC(C)=CCC/C(C)=C/CC/C(C)=C/CO[P@@](=O)(O)OP(=O)(O)O.
T1 construct: C-terminal deletion of residues 529-555; host and tags only in supplement
From the text:
enzyme kinetics, Hanes-Woolf plot on ∆529–555 (CADS)

Data set [2] deals with T2, CC(C)=CCC/C(C)=C/CC/C(C)=C/CO[P@@](=O)(O)OP(=O)(O)O.
T2 construct: C-terminal deletion of residues 522-548; host and tags only in supplement
From the text: enzyme kinetics, Hanes-Woolf plot on ∆522–548 (CARS)

Substrate in data set [3]: CC(C)=CCC/C(C)=C/CC/C(C)=C/CO[P@@](=O)(O)OP(=O)(O)O
From the text:
enzyme kinetics, Hanes-Woolf plot on CARS (wild-type, full-length)

Substrate in data set [4]: CC(C)=CCC/C(C)=C/CC/C(C)=C/CO[P@@](=O)(O)OP(=O)(O)O
From the text:
enzyme kinetics, Hanes-Woolf plot on CADS (wild-type, full-length)
This is another data set of the same source.

Substrate in data set [5]: CC(C)=CCC/C(C)=C/CC/C(C)=C/CO[P@@](=O)(O)OP(=O)(O)O
From the text: enzyme kinetics, Hanes-Woolf plot on ∆1–228 (CADS)
The source holds these as a separate data set.

Substrate in data set [6]: CC(C)=CCC/C(C)=C/CC/C(C)=C/CO[P@@](=O)(O)OP(=O)(O)O
From the text:
enzyme kinetics, Hanes-Woolf plot on ∆1–226 (CARS)
This is another data set of the same source.

Regarding “∆529–555 (CADS) (Lavandula angustifolia; DEL529-555)”, in data set [1], the Km (in general, the substrate concentration at which the rate is half of its maximum) was 7.13 ± 0.29 µM and the kcat (usually the maximal rate divided by the concentration of active sites) was determined as 0.44 ± 0.00883 s⁻¹.
For “∆522–548 (CARS) (Lavandula angustifolia; DEL522-548)”, in data set [2], the Km came to 4.96 ± 0.17 µM and the kcat came to 0.391 ± 0.0115 s⁻¹.

B1: CARS (wild-type, full-length) (Lavandula angustifolia) (protein)
chain: MAAPISTNNVCSDDARPVTYHPNVWSDYFLRYTSELTEISVAKKEEHERQKEAIRNLLLQTRDDSTLKLELVDAIQRLGIGYHFEEEIHNSLRNIYDTNPIYNAEDDNLRVAALRFRLIRQQGFPAPCDVFRKFVDEEGEFKSWVSNDVEGLLNLYEASNFAVHGEEILEKALEFCSLRLEFLTQGMTNSLSMRVKEALKIPISKTLTRLGARKFMSMYQEDESHNETLLNFAKLDFNLVQKIHQKELNQITRWWKELDFGKNLPFARDRPVECYFWIVGVYFEPRYGIARTLLTKIIYLASVLDDIYDVYGTLAELTIFTQIIRRWDSDAMDQLPPYMRIYCKALFDVYVEMEEEMGKIRKSYAVEYAKKEMKRLAEMYFQEAQWAFSKYKPTMKEYLKVALISSGYMMMTINSLTTIEDLITEEEFNWILSEPRILRASLTITRLMDDLAGYGTEGKMSAVHYYMAENGVSEGEAFKEVSGIIKSAWKDVNAECVEPRAASTTILRCVVDFTRVIVLLYSDEDAYGNSQTKTKDLIKSVLVDPLII
notes: full-length, codon-optimised gene; monomer by DLS; host and tags only in supplement
For B1, in data set [3], the Km was found to be 11.34 ± 0.13 µM and the kcat came out at 0.104 ± 0.00183 s⁻¹.

B2: CADS (wild-type, full-length) (Lavandula angustifolia) (protein)
chain: MATSAVVNCLGGVRPHTIRYEPNMWTHTFSNFSIDEQVQGEYAEEIEALKQEVRSMLTAATTCKEQLILIDTLERLGLSYHFETEIEQKLKEIILHINREEDASGGDCDLYTTSLGFRVIRQHQYHISCGVFEKYLDKDGKFEESLSSDTEGILSLYEAAHVRFRDETLLQEAARFSRHHLKGMEEVLESPLREKVQRALQHPLHRDIPIFYAHFFISNIYQKDDSRNELLLKLAKSNFMFLQNLYKEELSQLSRWWNKFDLKSKLPYARDRLVEAYIWGVGYHYEPRYAYVRRGLVIGIQIIAIMDDTYDNYATVDEAQLFTEMFERWSMDGIDGVPDYLKIAYHFVVSAFEDYERDAGKLGKQFAAPYFKQTIQQLARAYNQELKWVMGTQSMPSFQDYAKNSEITSCIYIMSASVFHGLESVTQETIDWLKNEPNFAVSTGMIGRYWDDIGSHERESRGGKMLTAVGCYMKQYGVSKKEAVRKFREQVEDLWKDVNKGYTAMTCMPRETAVLFLNYARMCDASYTENNDDGYTDPDFSKRKISALFLDPLVF
notes: as for B1
Take B2: in data set [4], the Km amounted to 15.86 ± 0.21 µM and the kcat was 0.0993 ± 0.00383 s⁻¹.

B3: ∆1–228 (CADS) (Lavandula angustifolia) (protein)
chain: ELLLKLAKSNFMFLQNLYKEELSQLSRWWNKFDLKSKLPYARDRLVEAYIWGVGYHYEPRYAYVRRGLVIGIQIIAIMDDTYDNYATVDEAQLFTEMFERWSMDGIDGVPDYLKIAYHFVVSAFEDYERDAGKLGKQFAAPYFKQTIQQLARAYNQELKWVMGTQSMPSFQDYAKNSEITSCIYIMSASVFHGLESVTQETIDWLKNEPNFAVSTGMIGRYWDDIGSHERESRGGKMLTAVGCYMKQYGVSKKEAVRKFREQVEDLWKDVNKGYTAMTCMPRETAVLFLNYARMCDASYTENNDDGYTDPDFSKRKISALFLDPLVF
notes: N-terminal deletion of residues 1-228; host and tags only in supplement
As for B3, in data set [5], the Km amounted to 11.13 ± 0.37 µM and the kcat was found to be 0.2937 ± 0.00233 s⁻¹.

B4: ∆1–226 (CARS) (Lavandula angustifolia) (protein)
chain: ETLLNFAKLDFNLVQKIHQKELNQITRWWKELDFGKNLPFARDRPVECYFWIVGVYFEPRYGIARTLLTKIIYLASVLDDIYDVYGTLAELTIFTQIIRRWDSDAMDQLPPYMRIYCKALFDVYVEMEEEMGKIRKSYAVEYAKKEMKRLAEMYFQEAQWAFSKYKPTMKEYLKVALISSGYMMMTINSLTTIEDLITEEEFNWILSEPRILRASLTITRLMDDLAGYGTEGKMSAVHYYMAENGVSEGEAFKEVSGIIKSAWKDVNAECVEPRAASTTILRCVVDFTRVIVLLYSDEDAYGNSQTKTKDLIKSVLVDPLII
notes: N-terminal deletion of residues 1-226; host and tags only in supplement
Consider B4, for which, in data set [6], the Km was 9.57 ± 0.24 µM and the kcat was determined as 0.24 ± 0.00533 s⁻¹.

Source of the values: PMC12524728, “Integrating Structural Bioinformatics and Functional Mechanisms of Sesquiterpene Synthases CARS and CADS in Lavandula angustifolia (Lavender)” (International Journal of Molecular Sciences, 2025).
